Biological target: wild-type full-length human FGFR1c, P11362
Test: proximity ligation assay (PLA) on L6 cells
Conditions: chain shown with the change; L6-FGFR1cWT cells cotreated with FGF23ΔHBS and soluble αKlotho; n = 6 microscope fields, mean ± SD; parent: est. 2.3; read off a plot

Chain of wild-type full-length human FGFR1c, P11362 (P11362 22-822): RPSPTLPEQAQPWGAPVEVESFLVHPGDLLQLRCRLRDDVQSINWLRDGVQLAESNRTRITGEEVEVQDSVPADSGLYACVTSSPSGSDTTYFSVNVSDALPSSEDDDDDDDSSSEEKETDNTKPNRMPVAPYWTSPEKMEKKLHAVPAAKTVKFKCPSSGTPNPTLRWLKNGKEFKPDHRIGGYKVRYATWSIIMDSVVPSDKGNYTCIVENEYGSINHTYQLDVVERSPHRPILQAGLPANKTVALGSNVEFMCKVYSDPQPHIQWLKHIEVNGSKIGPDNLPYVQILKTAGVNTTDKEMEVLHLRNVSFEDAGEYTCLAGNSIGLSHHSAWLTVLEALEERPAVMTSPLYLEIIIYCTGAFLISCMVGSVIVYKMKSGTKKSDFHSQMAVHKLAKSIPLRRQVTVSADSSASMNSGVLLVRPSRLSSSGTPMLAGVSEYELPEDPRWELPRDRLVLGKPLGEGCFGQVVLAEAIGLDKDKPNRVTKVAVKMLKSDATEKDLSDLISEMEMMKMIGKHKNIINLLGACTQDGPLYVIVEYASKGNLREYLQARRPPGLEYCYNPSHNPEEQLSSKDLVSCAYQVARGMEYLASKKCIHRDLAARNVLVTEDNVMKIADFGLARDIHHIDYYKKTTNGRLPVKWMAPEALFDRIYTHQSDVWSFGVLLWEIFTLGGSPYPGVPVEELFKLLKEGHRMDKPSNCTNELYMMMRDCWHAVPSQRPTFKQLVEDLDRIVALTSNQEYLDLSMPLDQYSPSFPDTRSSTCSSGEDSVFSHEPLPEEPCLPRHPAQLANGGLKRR

B1: full-length mature human FGF23 (residues Tyr25 to Ile251), Q9GZV9 R48A; R140A (protein)
chain: MLGARLRLWVCALCSVCSMSVLRAYPNASPLLGSSWGGLIHLYTATAANSYHLQIHKNGHVDGAPHQTIYSALMIRSEDAGFVVITGVMSRRYLCMDFRGNIFGSHYFDPENCRFQHQTLENGYDVYHSPQYHFLVSLGAAKRAFLPGMNPPPYSQFLSRRNEIPLIHFNTPIPRRHTRSAEDDSERDPLNVLKPRARMTPAPASCSQELPSAEDNSPMASDPLGVVRGGRVNTHAGGTGPEGCRPFAKFI
Binder B1 has a response (positive point/cell number) of 1.2.

From publication PMC10284700
